In paper PMC10834949:

Assays:
Aβ42 fibrils [1] = assay: co-sedimentation; sample of co-incubated BRICHOS-Aβ42 fibrils centrifuged; BRICHOS in the supernatant measured by SDS-PAGE
Aβ42 fibrils [2] = assay: SPR; sonicated Aβ42 fibrils immobilised by amine coupling on a C1 chip (BIAcore 3000); R221E Bri2 BRICHOS injected at 0.195-50 uM in HBS-E (10 mM HEPES, 150 mM NaCl, 0.2 mM EDTA, pH 7.5), 30 uL/min; two-phase association and two-phase dissociation model, global fit; apparent constants
Aβ42 fibrils [3] = assay: NMR titration; solution 1H-15N HSQC of 74 uM 15N-labelled BRICHOS before and after adding sonicated unlabelled Aβ42 fibrils at 1:1 (related to monomeric Aβ42); 20 mM sodium phosphate, 0.2 mM EDTA, pH 7.4, 25 °C; loss of signal intensity taken as the bound population

- percent of BRICHOS in the soluble fraction (Aβ42 fibrils [1]): 95%
- percent of total BRICHOS bound (Aβ42 fibrils [1]): 5 to 10%
- KD app of the strong phase (two-phase model) (Aβ42 fibrils [2]): 0.0129 µM
- percent of HSQC signal intensity left after adding fibrils at 1:1 (Aβ42 fibrils [3]): 90%
- percent of total BRICHOS bound (Aβ42 fibrils [3]): 5 to 10%
- relative signal attenuation (population of bound BRICHOS) (Aβ42 fibrils [3]): 10%
Substance: recombinant human Bri2 BRICHOS R221E monomer (domain or fragment)
